Experimental data taken from US20250027068.

Target: pooled human IgG

Row | Protein | Enzyme Activity Endpoint Assay (purified): Fab'2 [ng/µL] | Enzyme Activity Endpoint Assay (purified): Fc [ng/µL] | Enzyme Activity Endpoint Assay (purified): IgG [ng/µL] | Enzyme Activity Endpoint Assay (purified): scIgG [ng/µL] | Enzyme Activity Endpoint Assay (purified): Fab′2 [ng/µL] | Enzyme Activity Endpoint Assay: Fab′2 [ng/µL] | Enzyme Activity Endpoint Assay: Fc [ng/µL] | Enzyme Activity Endpoint Assay: IgG [ng/µL] | Enzyme Activity Endpoint Assay: scIgG [ng/µL]
1 | PRT-115 (protein) MRNATEAYAKETPKTITSVWTKGVTPPTPEQFRYNGEDVIHAPYLAHQGWYDITKTFDGKDNLLCGAATAGNMLHWWFDQNKTEIERYLKKHPEKQKIIFNNQELFDLKAAIDTKDSQTNSALFNYFRDKAFPNLSARQLGVMPDLVLDMFINGYYLNVTKTQSTDVNRPYQTKDKRGGIFDAVFTRGDQTKLLTARHDLKNKTLNDISTLIKQELTEGKALALSHTYANVSISHVINLWGADFNAEGNLEAIYVTDSDSNASIGMKKYFVGVNAAGKVAISAKKIKGENIGAQVLGLFTLSSGKDIWQKLS | 124 | 128 | 24 | 105 | – | – | – | – | –
2 | PRT-80 (protein) MANQEIRYSEVTPKHITSVWTKGVTPPTQFIQGEDVFHAPYKANQGWYDITKTFNGKDDLLCGAATAGNMLHWWFDQNKEEIEAYLKKHPEKQKIMFGDQELLDVRKAINTKDDQTNSELFNYFRDKAFPNLSARRLGVMPDHVLDMFINGYYLNVNKTQTTDVNRTYQEKDPRGGIFDAVFTRGDQSKLLTSRHDFKEKTLKEISDLIKQELTEGKALGLSHTYANVRINHVINLWGADFDSNGNLKAIYVTDSDSDASIGMKKYFVGVNSAGKVAISAKEIKGDNIGAQVLGLFTLSTGQDIWNQTN | – | 70 | 29 | 34 | 15 | – | – | – | –
3 | PRT-112 (protein) MRNATEAYAKEVPHKITSVWTKGVTPLTPEQFRYNGEDVIHAPYLANQGWYDITKTFDGKDNLLCGAATAGNMLHWWFDQNKTEIEAYLKKHPEKQKIIFNNQELFDLKAAIDTKDSQTNSALFNYFKDKAFPNLSARQLGVMPDHVLDMFINGYYLNVFKTQSTDVNRPYQDKDKRGGIFDAVFTRGDQTKLLTARHDLKNKGLNEISTLIKQELTEGKALALSHTYANVSISHVINLWGADFNAEGNLEAIYVTDSDANASIGMKKYFVGVNASGKVAISAKKIEGENIGAQVLGLFTLSSGKDIWQKLS | 435 | 152 | 15 | 0 | – | – | – | – | –
4 | PRT-113 (protein) MRNATEAYAKEVPHTITSVWTKGVTPPTPEQFTYYNEDVFHAPYLAHQGWYDITKTFNGKDNLLCGAATAGNMLHWWFDQNKTEIEAYLSKHPEKQKIIFNNQELFDLKAAIDTKDSQTNSQLFNYFKDKAFPNLSARQLGVMPDLVLDMFINGYYLNVFKTQSTDVNRPYQDKDKRGGIFDAVFTRGDQTKLLTARHDLKNKGLNDISDLIKQELTEGKALALSHTYANVSINHVINLWGADFNAEGNLEAIYVTDSDANASIGMKKYFVGINASGKVAISAKKIEGENIGAQVLGLFTLSSGKDIWQKLS | 656 | 189 | 0 | 0 | – | – | – | – | –
5 | PRT-82 (protein) MANQEIRYSEVTPSTITSVWTKGVTPPAQFIQNEDVFHAPYVANQGWYDITKTFNGKDDLLCGAATAGNMLHWWFDQNKEEIEAYLKKHPEKQKIMFGDQELLDVRKVINTKDDQTNSALFNYFKDKAFPNLSARRLGVMPDLVLDMFINGYYLNVGKTQTTDVNRTYQNKDRRGGIFDAVFTRGDQSKLLTARHDFKEKNLNEISDLIKQELTEGKALALSHTYANVSINHVINLWGADFDANGNLEAIYVTDSDSNASIGMKKYFVGVNSAGKVAISAKEIEEDNIGAQVLGLFTLSTGQDIWNKTN | – | 67 | 15 | 60 | 9 | – | – | – | –
6 | PRT-116 (protein) MRNATEAYNKATPTTITSVWTKGVTPPTPEQFRYNNEDVFHAPYKAHQGWYDITKTFNGKDNLLCGAATAGNMLHWWFDQNKTEIEAYLSKHPEKQKIIFNNQELFDLKAAIDTKDSQTNSQLFNYFRDKAFPNLSARQLGVMPDLVLDMFINGYYLNVFKTQSTDVNRPYQDKDKRGGIFDAVFTRGDQTKLLTARHDLKDKGLNEISDLIKQELTEGKALALSHTYANVRISHVINLWGADFNAEGNLEAIYVTDSDANASIGMKKYFVGVNSSGHVAISAKKIEGENIGAQVLGLFTLSSGKDIWQKLS | 510 | 188 | 0 | 0 | – | – | – | – | –
7 | PRT-6 (protein) MANQEIRYSEVTPYHVTSVWTKGVTPPANFTQGEDVFHAPYVANQGWYDITKTFNGKDDLLCGAATAGNMLHWWFDQNKEQIERYLKEHPEKQKINFNGEQMFDVKEAIDTKNSQLDSKLFEYFKEKAFPYLSTKHLGVFPDHVIDMFINGYRLSLTNHGPTPVKEGSKDPRGGIFDAVFTRGDQSKLLTSRHDFKEKNLKEISDLIKKELTEGKALGLSHTYANVRINHVINLWGADFDSNGNLKAIYVTDSDSNASIGMKKYFVGVNSAGKVAISAKEIEGDNIGAQVLGLFTLSTGQDIWNQTN | – | – | – | – | – | 49 | 129 | 16 | 15
8 | PRT-9 (protein) MANQEIRYSEETPYHVTSVWTKGVTPPANFTQGEDVFHAPYVANQGWYDITKTFNGKDDLLCGAATAGNMLHWWFDQNKEQIERYLKEHPEKQKINFNGEQMFDVKEAIDTKNSQLDSKLFEYFKEKAFPYLSTKHLGVFPDHVIDMFINGYRLSLTNHGPTPVKEGSKDPRGGIFDAVFTRGDQSKLLTSRHDFKEKTLKEISDLIKKELTEGKALALSHTYANVRINHVINLWGADFDSNGNLKAIYVTDSDSNASIGMKKYFVGVNSAGKVAISAKEIKEDNIGAQVLGLFTLSSGQDIWNQTN | – | – | – | – | – | 39 | 103 | 21 | 32
9 | PRT-8 (protein) MANQEIRYSEVTPYHVTSVWTKGVTPPTNFTQGEDVFHAPYIANQGWYDITKTFNGKDDLLCGAATAGNMLHWWFDQNKDQIERYLKEHPEKQKINFNGEQMFDVKEAIDTKNSQLDSKLFEYFKEKAFPYLSTKHLGVFPDHVLDMFINGYRLSLTNHGPTPVKEGSKDPRGGIFDAVFTRGDQSKLLTSRHDFKEKNLKEISDLIKQELTEGKALGLSHTYANVRINHVINLWGADFDSNGNLEAIYVTDSDSNASIGMKKYFVGVNSAGKVAISAKEIKDDNIGAQVLGLFTLSTGQDIWNQTN | – | – | – | – | – | 50 | 127 | 16 | 16
10 | PRT-7 (protein) MANQEIRYSEETPYHVTSVWTKGVTPPANFTQGEDVFHAPYVANQGWYDITKTFNGKDDLLCGAATAGNMLHWWFDQNKDQIERYLKKHPEKQKINFNGEQMFDVKEAIDTKDSQTDSKLFEYFKEKAFPYLSTKHLGVFPDHVIDMFINGYRLSLTNHGPTPVKEGSKDPRGGIFDAVFTRGDQSKLLTSRHDFKEKNLKEISDLIKKELTEGKALGLSHTYANVRINHVINLWGADFDSNGNLKAIYVTDSDSNASIGMKKYFVGVNSAGKVAISAKEIKEDNIGAQVLGLFTLSTGQDIWEQTN | – | – | – | – | – | 50 | 137 | 18 | 16
11 | PRT-81 (protein) MANQEIRYSEVTPSHVTSVWTKGVTPPADFTQGEDVFHAPYVANQGWYDITKTFNGKDNLLCGAATAGNMLHWWFDQNKEQIENYLKKHPEKQKIMFGDQELLDVRKVINTKDSQTNSALFNYFRDKAFPNLSARRLGVMPDLVLDMFINGYYLNLTKTQTTDVNRTYQTKDKRGGIFDAVFTRGDQSKLLTSRHDFKEKTLKEISDLIKQELTEGKALGLSHTYANVRINHVINLWGADFDSNGNLKAIYVTDSDSNASIGMKKYFVGVNSAGKVAISAKEITEDNIGAQVLGLFTLSTGKDQWNQTN | – | 67 | 30 | 56 | 14 | – | – | – | –
12 | PRT-114 (protein) MRNATEAYNEETPHQITSVWTKGVTPPTPEQFRYNNEDVIHAPYLANQGWYDITKTFNGKDNLLCGAATAGNMLHWWFDQNKTEIEAYLSKHPEKQKIIFNNQELFDLKAAIDTKDSQTNSQLFNYFREKAFPNLSARQLGVMPDLVLDMFINGYYLNVTKTQSTDVNRPYQDKDKRGGIFDAVFTRGDQTKLLTARHDLKNKTLNEISTLIKQELTEGRALALSHTYANVSISHVINLWGADFNAEGNLEAIYVTDSDANASIGMKKYFVGVNAAGHVAISAKKIEGENIGAQVLGLFTLSSGKDIWQKLS | 361 | 162 | 129 | 111 | – | – | – | – | –
13 | PRT-111 (protein) MRNATEAYAKEVPHQITSVWTKGVTPPTPEQFRYNNEDVFHAPYLAHQGWYDITKTFNGKDNLLCGAATAGNMLHWWFDQNKTEIEAYLKKHPEKQKIIFNNQELFDLKAAIDTKDSQTNSQLFNYFRDKAFPNLSARQLGVMPDLVLDMFINGYYLNVFKTQSTDVNRPYQDKDKRGGIFDAVFTRGDQTTLLTNRHDLKNKGLNDISTLIKQELTEGKALALSHTYANVSISHVINLWGADFNAEGNLEAIYVTDSDANASIGMKKYFVGINSAGHVAISAKKIEGENIGAQVLGLFTLSSGKDIWQKLS | 328 | 133 | 26 | 0 | – | – | – | – | –
14 | PRT-83 (protein) MANQEIRYSEETPYHVTSVWTKGVTPPEKFTQGEDVFHAPYVANQGWYDITKTFNGKDDLLCGAATAGNMLHWWFDQNKDQIEAYLSKHPEKQKIMFGDQELLDVRKAINTKDSQTNSELFNYFRDKAFPNLSARRLGVMPDLVLDMFINGYRLNVTKTQTTDVNETYQEKDKRGGIFDAVFTRGDQSKLLTSRHDFKEKTLNEISDLIKKELTEGKALGISHTYANVRINHVINLWGADFNSEGNLEAIYVTDSDSNASIGMKKYFVGVNSAGKVAISAKEIEEENIGAQVLGLFTLSTGQDIWQQTN | – | 44 | 42 | 40 | 0 | – | – | – | –
